From patent US5405946A, “Recombinant protein S variants deficient in C4BP binding activity, compositions and therapeutic methods” (The Scripps Research Institute, priority 1992, dated 1995)

T1: human C4b-binding protein (C4BP) (Homo sapiens, UniProt P20851)
T1 sequence (P20851 18-252): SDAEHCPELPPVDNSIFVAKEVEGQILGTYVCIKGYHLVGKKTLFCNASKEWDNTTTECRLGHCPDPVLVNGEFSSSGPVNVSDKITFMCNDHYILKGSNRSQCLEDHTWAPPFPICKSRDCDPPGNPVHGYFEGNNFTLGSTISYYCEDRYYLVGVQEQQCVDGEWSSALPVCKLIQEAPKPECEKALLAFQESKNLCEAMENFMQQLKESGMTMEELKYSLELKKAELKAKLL
T1 sequence (P04003 49-597 partner): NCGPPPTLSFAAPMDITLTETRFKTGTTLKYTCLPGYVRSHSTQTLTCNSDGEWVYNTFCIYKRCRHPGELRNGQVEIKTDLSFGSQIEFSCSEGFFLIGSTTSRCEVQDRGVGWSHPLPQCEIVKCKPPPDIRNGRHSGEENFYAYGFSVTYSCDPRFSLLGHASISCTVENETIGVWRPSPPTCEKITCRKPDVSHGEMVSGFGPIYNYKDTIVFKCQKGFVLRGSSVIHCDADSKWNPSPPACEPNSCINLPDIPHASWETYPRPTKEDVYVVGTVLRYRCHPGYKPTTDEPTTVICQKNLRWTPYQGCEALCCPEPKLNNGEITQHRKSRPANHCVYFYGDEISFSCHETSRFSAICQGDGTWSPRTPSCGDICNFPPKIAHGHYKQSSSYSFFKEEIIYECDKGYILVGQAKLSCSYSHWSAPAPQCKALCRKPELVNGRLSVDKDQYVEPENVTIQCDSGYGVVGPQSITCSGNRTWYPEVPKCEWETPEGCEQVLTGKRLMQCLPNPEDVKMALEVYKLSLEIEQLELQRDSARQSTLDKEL


How the values were obtained:
[1] = target: activated protein C (APC) (Homo sapiens, UniProt P04070); test: Activated partial thromboplastin time clotting assay, APC cofactor activity in PS- and C4BP-depleted plasma; type: biochemical; conditions: final conc. 0.6 ug/ml; basal clotting 80
Chain of activated protein C (APC) (P04070 212-461 limits assumed): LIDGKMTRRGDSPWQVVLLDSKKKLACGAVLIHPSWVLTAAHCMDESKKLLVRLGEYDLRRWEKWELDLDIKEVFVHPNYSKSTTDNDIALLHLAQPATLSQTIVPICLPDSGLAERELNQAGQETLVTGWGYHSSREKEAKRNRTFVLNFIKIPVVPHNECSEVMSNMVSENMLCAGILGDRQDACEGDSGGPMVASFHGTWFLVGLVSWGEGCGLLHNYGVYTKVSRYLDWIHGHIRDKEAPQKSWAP
Chain of activated protein C (APC) (P04070 43-197 limits assumed): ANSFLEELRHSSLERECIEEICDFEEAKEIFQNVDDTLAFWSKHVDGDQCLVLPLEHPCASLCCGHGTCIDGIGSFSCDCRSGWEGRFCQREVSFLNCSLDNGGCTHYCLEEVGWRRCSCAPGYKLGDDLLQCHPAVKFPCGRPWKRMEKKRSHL
Method: An activated partial thromboplastin time clotting assay, using PS- and C4BP-depleted plasma, cephalin-kaolin reagent (Boehringer Mannhein, Indianapolis, Ind.), activated protein C (APC) and increasing amounts of recombinant PS variants was performed as described by Chang et al., Thromb. Haemost., 67:526-532 (1992). Briefly, to 50 ul PS and C4BP-depleted plasma (prepared as described by Koedam et al., J. Clin. Invest., 82:1236-1243 (1988)) was added 50 ul cephalin-kaolin reagent, 25 ul APC (Koedam et al., ibid) at 5 ug/ml and 15 to 45 ul recombinant PS variants (0-4 ug/ml) diluted in Michaelis buffer (28.5 mM sodium acetate, 28.5 mM sodium barbital and 116 mM NaCl, pH 7.35) and maintained for 3 minutes at 37C. Clotting was initiated by addition of 50 ul of 25 mM CaCl2 and the clotting time was measured in an Amelung-Coagulometer KC10.
The ability of the variants to serve as a cofactor for APC was tested in a clotting assay. The clotting assay was performed as described in Example 2D. To examine the effects of thrombin on recombinant PS variants APC cofactor activity, one ml of purified recombinant PS variants listed above and prepared in Example 1D (4-40 ug/ml) was maintained with 1/20 vol (50 ul) of thrombin-Sepharose for 1 hour at 37C. in 50 mM Tris-HCl pH 7.5 containing […]. Thrombin-Sepharose was removed by centrifugation. Supernatants containing the thrombin-treated PS were stored at -20C. until used.
The PS-dependent prolongation of the clotting time was measured in an activated partial thromboplastin time system using PS and C4BP depleted plasma, APC and cephalin-kaolin reagent as described in Example 2D. Increasing amounts of recombinant PS or the triple variant treated without or with thrombin were added. Clotting was initiated by the addition of CaCl2 and the clotting time was measured. The results are presented as the means of duplicate values.

[2] = target: T1, human C4b-binding protein (C4BP); test: ELISA of complex formation between recombinant PS variant proteins and C4BP; conditions: first disulfide loop variants, 0-150 ng/ml, C4BP 1 ug/ml, 18 hours room temperature, calcium
Method: The complex formation between the recombinant PS variant proteins and C4BP was measured with a sensitive ELISA using C4BP and a peroxidase conjugated anti-PS antibody as described by Chang et al., Thromb. Haemost., 67:526-532 (1992). Briefly, IgG at a concentration of 10 ug/ml from monoclonal antibody 8C11, which is directed against the alpha chain of C4BP (Hessing et al., J. Immunol., 144:204-208 (1990)), was coated in 50 mM NaHCO3 at pH 9.6 overnight at 4C. onto polyvinyl microtiter plates (Costar, Cambridge, Mass.). After washing to remove the unbound IgGs, the wells were blocked with 1% (w/v) BSA in 50 mM Tris-HCl at pH 7.5 containing 150 mM NaCl and 5 mM CaCl2 for 1 hour at room temperature. C4BP, prepared as described by Hessing et al., supra, was allowed to bind for 2 hours with a final concentration of 1 ug/ml. Increasing amounts of recombinant PS proteins (E424K, Q427E, K429E, […] and K432E) and wild-type recombinant PS prepared in Example 1 were then added in concentrations ranging from 0-150 ng/ml and maintained for 18 hours at room temperature. Bound proteins were allowed to bind to rabbit anti-human PS IgG conjugated to peroxidase (Dakopatts, Glostrup, Denmark) at a concentration of 0.3 ug/ml for 2 hours at room temperature. After washing the wells to remove the unbound proteins, 100 ul of 0.1M sodium phosphate/0.2M sodium citrate at pH 5.0 containing 0.04% 1,2-phenylenediamine dihydrochloride and 0.015% hydrogen peroxide was added. The hydrolysis of phenylenediamine was stopped by adding 50 ul 2N sulfuric acid. The absorbance was measured at 490 nm using a Vmax plate reader (Molecular Devices Corp., Menlo Park, Calif.). The data represented the mean of duplicate determinations.
The binding of the of the thrombin domain recombinant PS variants to C4BP was determined. The complex formation between the recombinant proteins and C4BP was measured with a sensitive ELISA using anti-C4BP monoclonal antibody 8C11 lgG, purified C4BP and peroxidase conjugated anti-PS antibody as described in Example 2A.
Anti-C4BP monoclonal antibody 8C11 IgG was coated onto microtiter wells to catch C4BP (1 ug/ml). Increasing amounts (0-100 ng/ml) of recombinant PS or variants (R49L, R60L, R70I, R49L/R60L, R60L/R70I, R49L/R70I and R49L/R60L/R70I) were added. Binding to C4BP was for 18 hours at room temperature. Bound PS variants were detected with anti-PS IgG conjugated to peroxidase (0.3 ug/ml). The results are the mean of duplicate values in two different experiments.

Molecule | Clotting Time [1] | binding to C4BP [2]
E424K variant: recombinant human protein S with Glu-424 replaced by Lys (protein) ANSLLEETKQGNLERECIEELCNKEEAREVFENDPETDYFYPKYLVCLRSFQTGLFTAARQSTNAYPDLRSCVNAIPDQCSPLPCNEDGYMSCKDGKASFTCTCKPGWQGEKCEFDINECKDPSNINGGCSQICDNTPGSYHCSCKNGFVMLSNKKDCKDVDECSLKPSICGTAVCKNIPGDFECECPEGYRYNLKSKSCEDIDECSENMCAQLCVNYPGGYTCYCDGKKGFKLAQDQKSCEVVSVCLPLNLDTKYELLYLAEQFAGVVLYLKFRLPEISRFSAEFDFRTYDSEGVILYAESIDHSAWLLIALRGGKIEVQLKNEHTSKITTGGDVINNGLWNMVSVEELEHSISIKIAKEAVMDINKPGPLFKPENGLLETKVYFAGFPRKVESELIKPINPRLDGCIRSWNLMKQGASGIKKIIQEKQNKHCLVTVEKGSYYPGSGIAQFHIDYNNVSSAEGWHVNVTLNIRPSTGTGVMLALVSGNNTVPFAVSLVDSTSEKSQDILLSVENTVIYRIQALSLCSDQQSHLEFRVNRNNLELSTPLKIETISHEDLQRQLAVLDKAMKAKVATYLGGLPDVPFSATPVNAFYNGCMEVNINGVQLDLDEAISKHNDIRAHSCPSVWKKTKNS | 97 s | bound to C4BP with the same apparent affinity as the wild type recombinant molecule
Q427E variant: recombinant human protein S with Gln-427 replaced by Glu (protein) ANSLLEETKQGNLERECIEELCNKEEAREVFENDPETDYFYPKYLVCLRSFQTGLFTAARQSTNAYPDLRSCVNAIPDQCSPLPCNEDGYMSCKDGKASFTCTCKPGWQGEKCEFDINECKDPSNINGGCSQICDNTPGSYHCSCKNGFVMLSNKKDCKDVDECSLKPSICGTAVCKNIPGDFECECPEGYRYNLKSKSCEDIDECSENMCAQLCVNYPGGYTCYCDGKKGFKLAQDQKSCEVVSVCLPLNLDTKYELLYLAEQFAGVVLYLKFRLPEISRFSAEFDFRTYDSEGVILYAESIDHSAWLLIALRGGKIEVQLKNEHTSKITTGGDVINNGLWNMVSVEELEHSISIKIAKEAVMDINKPGPLFKPENGLLETKVYFAGFPRKVESELIKPINPRLDGCIRSWNLMKQGASGIKEIIEEKQNKHCLVTVEKGSYYPGSGIAQFHIDYNNVSSAEGWHVNVTLNIRPSTGTGVMLALVSGNNTVPFAVSLVDSTSEKSQDILLSVENTVIYRIQALSLCSDQQSHLEFRVNRNNLELSTPLKIETISHEDLQRQLAVLDKAMKAKVATYLGGLPDVPFSATPVNAFYNGCMEVNINGVQLDLDEAISKHNDIRAHSCPSVWKKTKNS | 94 s | bound to C4BP with the same apparent affinity as the wild type recombinant molecule
I425A/I426A variant: recombinant human protein S with alanine in place of isoleucine at positions 425 and 426 (protein) ANSLLEETKQGNLERECIEELCNKEEAREVFENDPETDYFYPKYLVCLRSFQTGLFTAARQSTNAYPDLRSCVNAIPDQCSPLPCNEDGYMSCKDGKASFTCTCKPGWQGEKCEFDINECKDPSNINGGCSQICDNTPGSYHCSCKNGFVMLSNKKDCKDVDECSLKPSICGTAVCKNIPGDFECECPEGYRYNLKSKSCEDIDECSENMCAQLCVNYPGGYTCYCDGKKGFKLAQDQKSCEVVSVCLPLNLDTKYELLYLAEQFAGVVLYLKFRLPEISRFSAEFDFRTYDSEGVILYAESIDHSAWLLIALRGGKIEVQLKNEHTSKITTGGDVINNGLWNMVSVEELEHSISIKIAKEAVMDINKPGPLFKPENGLLETKVYFAGFPRKVESELIKPINPRLDGCIRSWNLMKQGASGIKEAAQEKQNKHCLVTVEKGSYYPGSGIAQFHIDYNNVSSAEGWHVNVTLNIRPSTGTGVMLALVSGNNTVPFAVSLVDSTSEKSQDILLSVENTVIYRIQALSLCSDQQSHLEFRVNRNNLELSTPLKIETISHEDLQRQLAVLDKAMKAKVATYLGGLPDVPFSATPVNAFYNGCMEVNINGVQLDLDEAISKHNDIRAHSCPSVWKKTKNS |  | failed to bind to C4BP at concentrations up to 50 ng/ml
K432E variant: recombinant human protein S with Lys-432 replaced by Glu (protein) ANSLLEETKQGNLERECIEELCNKEEAREVFENDPETDYFYPKYLVCLRSFQTGLFTAARQSTNAYPDLRSCVNAIPDQCSPLPCNEDGYMSCKDGKASFTCTCKPGWQGEKCEFDINECKDPSNINGGCSQICDNTPGSYHCSCKNGFVMLSNKKDCKDVDECSLKPSICGTAVCKNIPGDFECECPEGYRYNLKSKSCEDIDECSENMCAQLCVNYPGGYTCYCDGKKGFKLAQDQKSCEVVSVCLPLNLDTKYELLYLAEQFAGVVLYLKFRLPEISRFSAEFDFRTYDSEGVILYAESIDHSAWLLIALRGGKIEVQLKNEHTSKITTGGDVINNGLWNMVSVEELEHSISIKIAKEAVMDINKPGPLFKPENGLLETKVYFAGFPRKVESELIKPINPRLDGCIRSWNLMKQGASGIKEIIQEKQNEHCLVTVEKGSYYPGSGIAQFHIDYNNVSSAEGWHVNVTLNIRPSTGTGVMLALVSGNNTVPFAVSLVDSTSEKSQDILLSVENTVIYRIQALSLCSDQQSHLEFRVNRNNLELSTPLKIETISHEDLQRQLAVLDKAMKAKVATYLGGLPDVPFSATPVNAFYNGCMEVNINGVQLDLDEAISKHNDIRAHSCPSVWKKTKNS |  | failed to bind to C4BP at concentrations up to 50 ng/ml
